Experimental data as given in patent US20040259198.

Biological target: T1, recombinant human MAT II β subunit protein with N-terminal poly-His tag, expressed in E. coli from pQE-30 (Clone 5)
T1 chain: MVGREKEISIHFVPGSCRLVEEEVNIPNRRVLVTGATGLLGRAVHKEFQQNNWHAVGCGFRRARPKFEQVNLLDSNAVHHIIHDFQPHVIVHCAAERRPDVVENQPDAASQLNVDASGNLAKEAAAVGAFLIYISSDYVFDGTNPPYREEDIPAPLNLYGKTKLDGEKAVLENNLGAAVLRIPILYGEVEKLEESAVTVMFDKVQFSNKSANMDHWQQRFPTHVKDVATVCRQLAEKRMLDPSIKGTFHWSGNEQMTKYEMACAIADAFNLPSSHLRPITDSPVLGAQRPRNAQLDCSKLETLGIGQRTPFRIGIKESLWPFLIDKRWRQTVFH

B1: endogenous E. coli MAT α subunit (protein)
chain: AKHLFTSESVSEGHPDKIADQISDAVLDAILEQDPKARVACETYVKTGMVLVGGEITTSAWVDIEEITRNTVREIGYVHSDMGFDANSCAVLSAIGKQSPDINQGVDRADPLEQGAGDQGLMFGYATNETDVLMPAPITYAHRLVQRQAEVRKNGTLPWLRPDAKSQVTFQYDDGKIVGIDAVVLSTQHSEEIDQKSLQEAVMEEIIKPILPAEWLTSATKFFINPTGRFVIGGPMGDCGLTGRKIIVDTYGGMARHGGGAFSGKDPSKVDRSAAYAARYVAKNIVAAGLADRCEIQVSYAIGVAEPTSIMVETFGTEKVPSEQLTLLVREFFDLRPYGLIQMLDLLHPIYKETAAYGHFGREHFPWEKTDKAQLLRDAAGLK
For B1, the “Km of MAT for L-methionine” value was “This association changed the kinetic properties of the enzyme and lowered the Km of MAT for L-methionine”.
